Assay [1] has as its target T1, Recombinant human angiotensin-converting enzyme 2 (ACE2) protein, carrier-free (R&D Systems) (human), Q9BYF1. The assay can be described thus: cell-based or functional assay.
Assay [2] has as its target T1, Recombinant human ….
The target of assay [3] is T1, Recombinant human …. The source holds these as a separate data set.
Assay [4] has as its target T1, Recombinant human …. The assay can be described thus: calculated reference value for the zeta potential of the mixture.

T1 sequence (Q9BYF1 18-740 limits assumed): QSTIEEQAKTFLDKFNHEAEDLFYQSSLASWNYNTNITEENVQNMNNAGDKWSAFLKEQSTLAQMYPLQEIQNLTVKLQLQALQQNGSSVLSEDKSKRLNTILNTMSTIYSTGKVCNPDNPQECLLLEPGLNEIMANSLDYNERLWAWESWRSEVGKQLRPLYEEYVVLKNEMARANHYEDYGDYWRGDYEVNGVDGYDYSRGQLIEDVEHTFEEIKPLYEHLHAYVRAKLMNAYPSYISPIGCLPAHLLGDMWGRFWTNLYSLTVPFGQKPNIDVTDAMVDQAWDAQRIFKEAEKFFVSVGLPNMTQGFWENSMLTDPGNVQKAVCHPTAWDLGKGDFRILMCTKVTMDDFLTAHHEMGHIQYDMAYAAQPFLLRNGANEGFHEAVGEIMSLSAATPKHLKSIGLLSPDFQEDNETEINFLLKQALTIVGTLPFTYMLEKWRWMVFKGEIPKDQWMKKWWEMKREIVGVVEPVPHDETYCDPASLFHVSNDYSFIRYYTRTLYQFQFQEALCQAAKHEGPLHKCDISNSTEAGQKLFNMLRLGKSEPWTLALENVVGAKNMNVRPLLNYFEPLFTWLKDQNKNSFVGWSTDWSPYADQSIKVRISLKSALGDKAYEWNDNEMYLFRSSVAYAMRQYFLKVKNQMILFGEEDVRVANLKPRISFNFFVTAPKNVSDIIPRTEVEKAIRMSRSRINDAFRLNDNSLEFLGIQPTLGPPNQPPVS

B1: ACE2-docking supramolecular filaments (20:1 molar ratio of Filler to Ligand), without ACE2 (peptide)
peptide 1: VVVGEE
peptide 2: VVVGKKGGGDYSHCSPLRYYPWWKCTYPDPEGGG
modifications: not checked
Take B1: in assay [1], the ACE2 enzymatic inhibition at 0 min incubation was 83% and the inhibition of added ACE2 (initial velocity relative to free ACE2) was determined as 93%. In assay [2], the zeta potential of the 20:1 filaments after addition of ACE2 (bar '20:1+ACE2'); the sheet prints -31.9 for '20:1' without ACE2 (** between the two) and -29.4 for 'Filler' alone was -36.7 mV.

With VVVGKKGGGDYSHCSPLRYYPWWKCTYPDPEGGG (modifications not checked) [ACE2-binding Ligand peptide amphiphile (C12-VVVGKK-GG-OEG4-DX600)], the zeta potential of the mixture, measured in assay [3] was -25.1 mV. The intensity-averaged zeta potential calculated assuming no interaction in assay [4] is -17.6 mV.

The values are drawn from US20250009896A1, “SUPR[…] BASED VIRAL […] CAPTURE FOR PREVENTION AND THERAPY OF VIRAL INFECTION” (The Johns Hopkins University, priority 2023, published 2025).
